The target of experiment [1] is T1, SARS-CoV-2 Omicron BA.1 RBD (SARS-CoV-2, Omicron BA.1, strain). The experiment in a line: cell-based or functional assay.
In experiment [2] the target is SARS-CoV-2 Delta variant RBD (SARS-CoV-2, Delta (B.1.617.2), strain). As to the kind of experiment: BLI.
The target of experiment [3] is T2, SARS-CoV-2 receptor binding domain (RBD), wild type (SARS-CoV-2, wild type (Wuhan), UniProt P0DTC2). The experiment in a line: BLI.
For experiment [4], the target named is SARS-CoV-2 Beta variant RBD (SARS-CoV-2, Beta (B.1.351), strain). The experiment in a line: BLI.
Experiment [5] addresses T1, SARS-CoV-2 Omicron BA.1 RBD. The experiment in a line: BLI.
In experiment [6] the target is T2, SARS-CoV-2 receptor binding domain …. The experiment in a line: cell-based or functional assay.

B1: 21B6 (antibody, V domains shown)
VH: EVRLVESGGGLVQPGGSLRLSCAASGFTFSDYYISWVRQAPGRGPEWVGFIRNVLYRGTTEYAPSVKGRFIISRDDSRAIASLQMNGLKADDTAVYYCALGASGTDRDWFDVWGPGVLVTVSS
VL: DIQMTQSPSSLSASVGDTVTITCRASQDISNSLAWYQQKPGKAPKALIYYASNLESGVPSRFSGSGSGTDFTLTISSLQPEDFATYYCQQHNNYPFTFGPGTKVDIK
With B1, the “IC50 of neutralization of authentic SARS-CoV-2 BA.1” value (shortened to “IC50 … of authentic SARS-CoV-2 BA.1”) in experiment [1] is 11 ng/mL. Besides, the Kd in experiment [2], in experiment [3], in experiment [4] and in experiment [5] was under 0.666 pM each time.

B2: 20A7 (antibody, V domains shown)
VH: DVQLVESGGGLVKPGGSLRLSCVASGFTFSNSEMHWVRQAPGKGLEWVSVISESGETTHYADSVKGRFTISRDNANNLLLLQMNSLRADDTAVYYCTRYNWNNRVYALDSWGQGVVVTVSS
VL: EIVLTQSPATLSLSPGEGASLSCRASQTVIGSLAWYQQKPGQAPRLLIYGASSRATGIPDRFSGSGSGTDFTLTISSLEPEDFAVYYCQQYGNWPLTFGPGTRLDIR
On to B2, for which the “IC50 … of authentic SARS-CoV-2 BA.1” value in experiment [1] is 6 ng/mL. The Kd in experiment [2], in experiment [3], in experiment [4] and in experiment [5] was under 0.666 pM each time.

B3: 20A7-VH E33V (antibody, V domains shown)
VH: DVQLVESGGGLVKPGGSLRLSCVASGFTFSNSVMHWVRQAPGKGLEWVSVISESGETTHYADSVKGRFTISRDNANNLLLLQMNSLRADDTAVYYCTRYNWNNRVYALDSWGQGVVVTVSS
VL: EIVLTQSPATLSLSPGEGASLSCRASQTVIGSLAWYQQKPGQAPRLLIYGASSRATGIPDRFSGSGSGTDFTLTISSLEPEDFAVYYCQQYGNWPLTFGPGTRLDIR
For the molecule B3, the “fold reduction of binding against 20A7” value in experiment [3] is about 300 fold.

B4: 25F9 (antibody, V domains shown)
VH: EVQLVESGGGLVQPGGSLRLSCSASGFRFSDYWINWVRQAPGKGLEWVGFIKTKADFGTPAYAESVKGRFSISRDDSKNTVYLQMNSLKTEDTAVYYCTRDRGILEWLIIEAGWFDVWGPGVLVTVSS
VL: QSVLTQPPSASGAPGQRVTISCTGSSSNIGAGHYVSWYQQLPGTAPKLLIHENDKRPSGVSDRFSGSRSGASASLTITGLQSGDEADYYCSVWDRSLNTLFGGGTRVTVL
In the case of B4, in experiment [6], the “IC50 of neutralization of authentic SARS-CoV-2 D614G” value was 6 ng/mL. Also, the “IC50 … of authentic SARS-CoV-2 BA.1” value in experiment [1] turned out to be 42 ng/mL. Further, the Kd in experiment [2], in experiment [3], in experiment [4] and in experiment [5] was under 0.666 pM throughout.

Values taken from doi:10.1101/2023.01.19.524784 (bioRxiv, 2023).
